The test system of data set [1] is RIP1-Tag5 tumours. Nature of the data set: Short term treatment of tumour-bearing RIP1-Tag5 mice, tumour histology. Format: in vivo, mouse. The method, then:
Short term treatment: commencing at 26-27 weeks of age mice were treated for 2 weeks with bi-weekly intravenous (i.v.) injections of recombinant proteins in 100 μl volume at 0.2 ng (equivalent to approximately […] body weight for a 30 g mouse) or 20 ng (equivalent to approximately […] body weight for a 30 g mouse) LIGHT or LIGHT-RGR. When indicated this was followed by one adoptive transfer of TagTCR8 (CD8+) T cells. Four days later, mice were sacrificed and tumours were isolated for histology. For adoptive transfer experiments, TagTCR8 lymph node cells were activated in vitro for 3 days, with 10 U of rIL-2/ml and 25 nM Tag peptide […] (SEFLIEKRI). 2.5×10^6 activated CD8^+ T cells were injected i.v once. The short term treatment regimen is shown schematically in FIG. 1
(§1) Mice were perfused with 2% neutral-buffered formalin before removal of tumours. Tumours were incubated in 10% (2 h) and 30% sucrose overnight and embedded in OCT compound. For immunohistochemistry the following antibodies were used: anti B220 (BD Pharmingen), anti-CD8 (Ly-2, BD Pharmingen), anti-CD31 (Mec 13.3., BD Pharmingen), anti-ICAM2 (3C4, BD Pharmigen), anti-CD45 (30-F11, BD Pharmingen), anti-CD68 (FA-11, BD Biosciences), anti-calponin (rabbit monoclonal EP798Y, Abcam), anti-caldesmon (rabbit monoclonal E89, Abcam), anti-collagen I or collagen IV (rabbit polyclonal, Abcam), Ki67 (PP67, Abcam), MECA79 (American type tissue culture, ATCC) and αSMA (1A4, Sigma). For secondary detection, AMCA (7-Amino-4-methylcoumarin-3-acetic acid), Cy-3 or FITC-conjugated IgG F(ab′)2 fragments (Jackson Immuno Research) were used. The αSMA staining was amplified using the mouse on mouse (M.O.M.) kit (Vector). For lectin perfusion, mice were i.v. injected with 50 μg of FITC-labelled tomato lectin (Lycopersicon esculentum, Vector). After 10 min of circulation, mice were heart-perfused with 2% neutral-buffered formalin and tumours frozen in OCT. To evaluate vessel leakiness, 1 mg of 70 kDa Texas Red Dextran (Invitrogen) was injected i.v. and allowed to circulate for 10 min. Mice were heart-perfused with PBS followed by 2% neutral buffered formalin and tumours frozen in OCT. Apoptosis was assessed using TUNEL staining (Roche). Images were recorded on a Nikon Ti-E microscope and quantified using NIS software modules (version 3.0).
To study the complex interrelationship between tumour, tumour vessels and the immune system, the inventors' analyses focused on a transgenic mouse model which develops spontaneous tumours that mimic the clinical scenario with regard to native anatomical location, slow growth kinetics, and multistep tumour progression. In RIP1-Tag5 mice, the oncogene SV40 Large T antigen (Tag; RIP, rat insulin gene promoter) is exclusively expressed in β cells of the pancreas leading to stepwise tumour development through well-characterized stages progressing from hyperplastic islets, to the initiation of Tag expression at approximately 10 weeks, the onset of blood vessel formation in angiogenic islets (termed “angiogenic switch”) at approximately 16 weeks and then to highly vascularised solid tumours at approximately 22 weeks, followed by death at approximately 30 weeks.

Data set [2] relates to RIP1-Tag5 tumours. Nature of the data set: Long term treatment and survival studies in RIP1-Tag5 mice. Format: in vivo, mouse. The method, then: 22 week-old RIP1-Tag5 mice were treated with bi-weekly i.v. injections of recombinant proteins as described for short term regimens for a total of 8 weeks and survival/tumour burden analysed at the set endpoint of 30 weeks. For adoptive transfer experiments, 2.5×10^6 activated TagTCR8 CD8^+ T cells were injected i.v twice (at week 4 and week 6). In adoptive transfer experiments (without LIGHT-RGR), mice received two adoptive transfers only. Chemotherapy: 22 week-old mice were treated with i.v. injections of 0.2 ng LIGHT-RGR bi-weekly over a period of 8 weeks and were simultaneously provided with […] cyclophosphamide (metronomic low dose) in drinking water throughout the experiment. The long term treatment regimen is shown schematically in FIG. 2. In addition, mice were treated with cyclophosphamide and/or LIGHT-RGR and survival monitored (death as endpoint).
For vaccination, mice were primed with one subcutaneous injection (tail base) of 50 μg recombinant Tag protein mixed with 50 μg Freund's adjuvant (Sigma). […] For combination therapies with checkpoint blockade, RIP1-Tag5 mice were treated with LIGHT-RGR (20 ng, iv, biweekly) in combination with anti-PD1 ([…].) and anti-CTLA4 ([…].) antibodies (BioXCell). In addition, mice were treated with triple combination of LIGHT-RGR/anti-PD1+anti CTL4/anti-Tag vaccine.
as §1
Cumulative survival time was calculated by the Kaplan-Meier method and analyzed by the log-rank test. Student's t test (2-tailed) was used unless indicated otherwise. A P value of less than 0.05 was considered statistically significant. Error bars indicate SD unless stated otherwise.
To study the complex interrelationship between tumour, tumour vessels and the immune system, the inventors' analyses focused on a transgenic mouse model which develops spontaneous tumours that mimic the clinical scenario with regard to native anatomical location, slow growth kinetics, and multistep tumour progression.

For data set [3], the system named is 4T1 breast cancer. As to the kind of experiment: Breast tumour model, orthotopic 4T1 in Balb/c mice, tumour histology. It is filed as in vivo, mouse. The method, then: Murine breast cancer cells (5×10^6, 4T1 from ATCC) were injected orthotopically into the mammary fat pad of Balb/c mice. […] Mice were injected with pimonidazole (hypoxia marker) and FITC-labelled lectin. After 1 h/10 min (pimonidazole/lectin, respectively) circulation, mice were perfused with 2% formalin and tumors dissected and fresh frozen in OCT compound. Tumours were analyzed by histology for vessel frequency (CD31), quality of vessel perfusion (CD31 plus lectin-FITC), caldesmon induction and frequency of intratumoral hypoxia (pimonidazole staining).
Murine breast cancer cells (5×10^6, 4T1 from ATCC) were injected orthotopically into the mammary fat pad of Balb/c mice. […] Mice were injected with pimonidazole (hypoxia marker) and FITC-labelled lectin. After 1 h/10 min (pimonidazole/lectin, respectively) circulation, mice were perfused with 2% formalin and tumors dissected and fresh frozen in OCT compound. Tumours were analyzed by histology for vessel frequency (CD31), quality of vessel perfusion (CD31 plus lectin-FITC), caldesmon (contractile pericyte marker) induction and frequency of intratumoral hypoxia (pimonidazole staining).

Data set [4] deals with tumour resident macrophages. Nature of the data set: TGFβ secretion of ex vivo purified tumour resident macrophages (ELISA). It is filed as cell-based, mouse. The note with it: macrophages from treated tumours; data not shown. Background: An ELISA detects its analyte on a solid surface through an enzyme-linked reagent.
Data set [5] deals with stromal cells. As to the kind of experiment: CCL21 secretion by stromal cells.
For data set [6], the system named is RIP1-Tag5 tumours. As to the kind of experiment: Short term treatment of tumour-bearing RIP1-Tag5 mice, tumour histology. To be noted: 2 μg; regimen not stated. Format: in vivo, mouse.
For data set [7], the system named is pericyte cell line. Nature of the data set: Calponin/caldesmin expression in pericyte cell line in vitro. To be noted: direct LIGHT induction; data not shown. It is filed as cell-based.
Where [8] appears, read: 0.2 ng i.v. bi-weekly for 2 weeks.
[9] abbreviates: 20 ng i.v. bi-weekly for 2 weeks.

Entries after “also recorded” stand apart in the source; their conditions may differ.

B1: LIGHT-RGR (protein)
chain: MESVVQPSVFVVDGQTDIPFRRLEQNHRRRRCGTVQVSLALVLLLGAGLATQGWFLLRLHQRLGDIVAHLPDGGKGSWEKLIQDQRSHQANPAAHLTGANASLIGIGGPLLWETRLGLAFLRGLTYHDGALVTMEPGYYYVYSKVQLSGVGCPQGLANGLPITHGLYKRTSRYPKELELLVSRRSPCGRANSSRVWWDSSFLGGVVHLEAGEEVVVRVPGNRLVRPRDGTRSYFGAFMVGGGCRGRRSTG
Turning to B1, in data set [1] (setting [8]), the “collagen IV alignment / stromal Col IV” value is on record as “close vessel alignment of collagen IV; also recorded: decreased stromal Col IV” and the “pericyte attachment to vessels (αSMA+ pericytes)” value is “firm attachment of pericytes to vessels; also recorded: significantly decreased the protrusion of αSMA+ pericytes from the vasculature”. Further, the “normalization of tumour vessels (histology)” value in data set [1] (0.2 ng i.v. bi-weekly for 2 weeks (four injections), RIP1-Tag5 mice) was “normalized chaotic tumour vessels”. The “total vessel counts / CD31 surface area” value in data set [1] (0.2 ng i.v. bi-weekly for 2 weeks, CD31 vessel marker) is reported as “without affecting total vessel counts; also recorded: total surface area of CD31 remained intact”. The tumour vessel caliber result in data set [1] (0.2 ng i.v. bi-weekly for 2 weeks, small <30 μm, larger 150-200 μm) is given as “shift from large to small caliber tumour vessels; also recorded: significant increase in small vessels”. Also, the “T cell infiltration, compared to either treatment on their own” value in data set [1] (0.2 ng in combination with adoptive transfer of in vitro activated CD8+ T cells) is “significantly improves T cell infiltration”. For the same molecule, in data set [1] (0.2 ng, 2 week treatment), the “tumour perfusion (FITC-lectin staining of vessels)” value is “indicative of adequate perfusion; also recorded: increased tumour perfusion” and the “vessel leakiness (extravasation of 70 kDa dextran)” value is listed as “less leaky phenotype; also recorded: reduced vascular leakiness”. Also, in data set [1] (0.2 ng, short term), the “CD8+ T cell infiltration” value is reported as “enhance CD8+ T cell infiltration”; the “ICAM-1 expression on tumour endothelial cells” value is “increases expression of the inflammatory adhesion molecule ICAM-1”; the “expression of collagen I in normalized vessels” value is reported as “significantly down regulated”; the “expression of contractile markers calponin and caldesmon in αSMA-positive tumour pericytes” value is given as “significant increase in expression; also recorded: significantly up regulated”. Besides, the “function of vessels within the tumour” value in data set [1] (0.2 ng, short term) is given as “improved the function of vessels within the tumour”. Further, in data set [1] (setting [9]), the “formation of ectopic lymph node structures associated with HEVs (MECA79)” value is recorded as “induced the formation of ectopic lymph node structures” and the “tumours with HEV structures” value was 60-75%. In addition, in data set [1] (20 ng, short term), the “immune cell infiltration of intratumoural areas surrounding HEVs” value was “heavily infiltrated with T cells and B cells”. Further, the “efficacy (total tumour burden by weight)” value in data set [1] (two week, 20 ng LIGHT-RGR with anti-PD-1/anti-CTLA4 double treatment versus single antibodies) is given as “superior to single treatment”. The “survival of RIP1-Tag5 mice at week 30” value in data set [2] (0.2 ng LIGHT-RGR combined with adoptive T cell transfer) is listed as “approximately 70%”. Further, in data set [2] (0.2 ng in combination with anti-Tag vaccination), the “survival over vaccination alone or vaccination with LIGHT” value is “substantially increased survival”. For the same molecule, the “inflammatory response at tumour site / tumour appearance” value in data set [2] (0.2 ng long term in combination with adoptive transfer of anti-Tag lymphocytes) is “substantial inflammatory response at the tumour site and pale”. The “tumour size / tumour burden” value in data set [2] (0.2 ng plus cyclophosphamide, 8 weeks) was “shift from large tumours to smaller tumours”. Besides, the “apoptotic tumour cells (TUNEL), compared to each treatment alone” value in data set [2] (0.2 ng plus low dose metronomic cyclophosphamide in drinking water, 8 weeks) was “significant increase in apoptotic tumour cells”. Moreover, the “survival compared to controls” value in data set [2] (20 ng LIGHT-RGR with anti-PD-1 (250 μg) and anti-CTLA4 (75 μg) antibodies, week 23 to 45) is reported as “significantly increased survival”. In addition, the “survival at 45 weeks of age” value in data set [2] (20 ng LIGHT-RGR with tumour specific (anti-Tag) vaccine) was 30%. Moreover, the “RIP1-Tag5 mice alive at 45 weeks” value in data set [2] (20 ng LIGHT-RGR+vaccine+anti-PD-1+anti-CTLA4) was determined as 70%. Moreover, in data set [2] (20 ng, long term), the “tumour cell apoptosis (TUNEL)” value was “increase in tumour cell apoptosis”; the “tumour cell content (Dapi, H&E)” value was “substantial reduction of tumour cells”; the “tumour necrosis at 30 weeks” value is recorded as “highly necrotic”. For the same molecule, the “survival compared to either treatment alone” value in data set [2] (LIGHT-RGR in combination with cyclophosphamide from week 22) is “significant increased survival”. Besides, the “survival of RIP1-Tag5 mice at week 30” value in data set [2] (single treatments, LIGHT-RGR 0.2 ng, treated from week 22) is on record as “approximately 30%”. Further, the “vessel normalization as shown for RIP1-Tag5 mice” value in data set [3] (20 ng) was “reproduced all aspects of vessel normalization”. Moreover, the vessel normalization entry in data set [3] (20 ng i.v. bi-weekly for 2 weeks, 4T1) was “induces vessel normalization”. Also, in data set [3] (20 ng, 4T1), the “contractile markers in pericytes (caldesmon)” value is given as “induced contractile markers in pericytes”, the “overall vascularity (CD31+ vessels)” value was “without change in overall vascularity”, the “tumour hypoxia (pimonidazole)” value was “reduced tumour hypoxia; also recorded: reduces tumor hypoxia” and the vessel calibers entry was “reduced vessel calibers”. Moreover, the “vessel perfusion (FITC-lectin)” value in data set [3] (20 ng, 4T1) was “increases vessel perfusion”. For the same molecule, in data set [3] (breast cancer model), the “binding affinity to tumor vessels relative to RIP1-Tag5” value is given as “lower binding affinity to tumor vessels” and the “dose required to recapitulate the vessel phenotype of RIP1-Tag5 mice treated with 0.2 ng” value is given as 20 ng. Besides, the “TGFβ secretion by tumour macrophages” value in data set [4] is given as “stimulates macrophages in the tumour environment to secrete TGFβ”. Also, the “CCL21 secretion by stromal cells” value in data set [5] is given as “stimulates stromal cells to secrete CCL21”. Also, the “effect on vessels in RIP1-Tag5 mice” value in data set [6] is on record as “caused vessel death”.

B2: LIGHT (protein, listed as Mus musculus)
chain: MESVVQPSVFVVDGQTDIPFRRLEQNHRRRRCGTVQVSLALVLLLGAGLATQGWFLLRLHQRLGDIVAHLPDGGKGSWEKLIQDQRSHQANPAAHLTGANASLIGIGGPLLWETRLGLAFLRGLTYHDGALVTMEPGYYYVYSKVQLSGVGCPQGLANGLPITHGLYKRTSRYPKELELLVSRRSPCGRANSSRVWWDSSFLGGVVHLEAGEEVVVRVPGNRLVRPRDGTRSYFGAFMV
With B2, in data set [1] (0.2 ng, 2 week treatment), the “vessel leakiness (extravasation of 70 kDa dextran)” value is “leaky phenotype”. For the same molecule, the “calponin/caldesmin induction in pericyte cells” value in data set [7] is “not induced”.

Values taken from patent US20200000877A1, “TREATMENT OF TUMOURS USING PEPTIDE-PROTEIN CONJUGATES” (priority 2014, published 2020).
